Consider nine molecules from article PMC6099280, “Characterisation of a putative glutamate 5‐kinase from Leishmania donovani” (The Febs Journal, 2018).

Data set [1] addresses T1, LdG5K (Leishmania donovani, UniProt A0A0R6Y3I5).
T1 construct: gene G5K; tetramer about 105 kDa
T1 sequence (A0A0R6Y3I5 1-263): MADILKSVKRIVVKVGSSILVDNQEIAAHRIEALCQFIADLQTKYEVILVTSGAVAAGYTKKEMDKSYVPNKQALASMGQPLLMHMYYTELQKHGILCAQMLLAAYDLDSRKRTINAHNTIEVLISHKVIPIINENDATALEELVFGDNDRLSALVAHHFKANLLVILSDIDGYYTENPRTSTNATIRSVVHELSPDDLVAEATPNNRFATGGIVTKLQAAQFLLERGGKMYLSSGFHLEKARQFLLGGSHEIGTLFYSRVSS
Nature of the data set: PK/LDH-coupled NADH oxidation assay, single point. It is filed as biochemical. As to conditions: 1 mM compound; 100 mM Na glutamate, 5 mM ATP, 5 mM MgCl2, pH 7.4, 25 °C. The source says: PK/LDH-coupled NADH oxidation assay, single point on LdG5K

The target of data set [2] is T1, LdG5K. The data set can be described thus: PK/LDH-coupled NADH oxidation assay. The format is biochemical. The text has this: (§1) PK/LDH-coupled NADH oxidation assay on LdG5K
Data set [3] deals with the molecule itself. Nature of the data set: SEC; Superdex 200 H/R 10/30, 50 mM Tris-HCl pH 7.2, 0.15 M NaCl, 0.5 mL/min, room temperature; mass estimated against protein standards; no proline.
Substrate in data set [4]: N[C@@H](CCC(=O)O)C(=O)O
Nature of the data set: PK/LDH-coupled NADH oxidation assay, Hill fit. It is filed as biochemical, Leishmania donovani. Conditions: no proline, Hill slope 0.94 ± 0.09, pH 7.4, 25 °C.

Substrate in data set [5]: Nc1ncnc2c1ncn2[C@@H]1O[C@H](COP(=O)(O)OP(=O)(O)OP(=O)(O)O)[C@@H](O)[C@H]1O
Nature of the data set: PK/LDH-coupled NADH oxidation assay. It is filed as biochemical, Leishmania donovani. Conditions: 150 mM Na glutamate, 5 mM MgCl2, pH 7.4, 25 °C.
Source text: as §1

Substrate in data set [6]: N[C@@H](CCC(=O)O)C(=O)O
Nature of the data set: PK/LDH-coupled NADH oxidation assay. Conditions: 5 mM ATP, 5 mM MgCl2, pH 7.4, 25 °C, no proline. It is filed as biochemical, Leishmania donovani.
Source text: as §1

The term IC50 denotes the concentration at which inhibition is half-maximal. Higher therefore signals weaker potency. Usually stoichiometry N stands for a count of units in the complex or per binding partner. By kcat is commonly meant the number of substrate molecules converted per active site and unit of time at saturation. A word on the Km: it is the concentration of substrate that gives half-maximal velocity. A word on the kcat/Km: it is the turnover number divided by the Michaelis constant.

For `O=C(O)[C@@H]1C[C@H](O)CN1` [Cis‐4‐hydroxy‐L‐proline], the “LdG5K activity (%) with 1 mM” value at LdG5K [1] is 87%. Turning to `O=C(O)[C@H]1CN[C@H](C(=O)O)C1` [L‐trans‐pyrrolidine‐2,4‐dicarboxylic acid], the “LdG5K activity (%) with 1 mM” value on LdG5K [1] came out at 84%. With `O=C(O)[C@@H]1C[C@@H](O)CN1` [Trans‐4‐hydroxy‐L‐proline], the “LdG5K activity (%) with 1 mM” value on LdG5K [1] came out at 89%. Consider `O=C(O)[C@@H]1CSCN1` [L‐4‐thioproline], for which 1800 ± 200 µM corresponded to half-maximal inhibition against LdG5K [2] (IC50).

Consider `C[C@@]1(C(=O)O)CCCN1` [α‐methyl‐L‐proline], for which the “LdG5K activity (%) with 1 mM” value at LdG5K [1] is 82%.

The molecule `O=C(O)[C@@H]1CCCN1` [L‐proline] registered an IC50 at LdG5K [2] of 390 ± 80 µM. For the molecule `O=C(O)[C@@H]1CCN1` [L‐azetidine‐2‐carboxylic acid], the half-maximal inhibitory concentration (IC50) on LdG5K [2] is 730 ± 70 µM. `O=C(O)C1C=CCN1` (racemic) [3,4‐dehydro‐D,L‐proline] had an IC50 at LdG5K [2] of 490 ± 20 µM.

B1: Leishmania donovani glutamate 5-kinase (enzyme, UniProt A0A0R6Y3I5 1-263, looked up)
chain: MADILKSVKRIVVKVGSSILVDNQEIAAHRIEALCQFIADLQTKYEVILVTSGAVAAGYTKKEMDKSYVPNKQALASMGQPLLMHMYYTELQKHGILCAQMLLAAYDLDSRKRTINAHNTIEVLISHKVIPIINENDATALEELVFGDNDRLSALVAHHFKANLLVILSDIDGYYTENPRTSTNATIRSVVHELSPDDLVAEATPNNRFATGGIVTKLQAAQFLLERGGKMYLSSGFHLEKARQFLLGGSHEIGTLFYSRVSS
notes: theoretical Mr 29.033 kDa; Cloned through BamHI/EcoRI into a modified pGEX-6P-1 with an in-frame N-terminal His-GST tag; also called LdG5K; G5K; source: E. coli C41(DE3) pLysS, purified (glutathione resin, on-column cleavage by PreScission protease); not shown: His, N-terminal, cleaved; GST, N-terminal, cleaved
Turning to B1, in data set [3], the “stoichiometry N” value was 4. In addition, in data set [4], the K0.5 was 19.0 ± 2.9 mM and the kcat came out at 13.5 ± 0.6 s⁻¹. For the same molecule, in data set [5], the Km stood at 0.6 ± 0.07 mM, the kcat stood at 11.7 ± 0.3 s⁻¹ and the kcat/Km was 19500 M⁻¹ s⁻¹. Also, in data set [6], the Km is 10 ± 0.7 mM, the kcat was 12.8 ± 0.3 s⁻¹ and the kcat/Km worked out at 1280 M⁻¹ s⁻¹.
